± gives the standard deviation.

The series is described as follows: protein stability index of a GFP-peptide fusion (GPS, HEK-293T) (PSI 1-6); higher = more stable.
Where [1] appears, read: treatment: DMSO, c terminus: a fixed tail appended.
Setting [2] is: treatment: MLN4924 1 uM, 8 h, c terminus: a fixed tail appended.
Where [3] appears, read: treatment: DMSO, c terminus: native.
Setting [4] is: treatment: MLN4924 1 uM, 8 h, c terminus: native.
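Further: 24-mer peptide tiles fused after GFP, lentivirally expressed, FACS-sorted into six equal bins by GFP/DsRed ratio, decoded by Illumina sequencing, PSI is the read-weighted mean bin number.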

With QKAPMTTVRGLHCMCTVGERLYVI [KLHL13], the protein stability index by setting is: under setting [1], 3.21 ± 0.61; under setting [2], 2.75 ± 0.52.

As to QKDSYQPPGNVYWPLRGKREAMLE [SPAG8], the protein stability index runs as follows: under setting [1], 3.58 ± 0.31; under setting [2], 3.62 ± 0.41.

Consider QKLADLRSLNEEHSKQYRCLSFQP [VDR], for which the protein stability index is 3.07 ± 0.12 under setting [1] and 3.24 ± 0.17 under setting [2].

As for QLFEDPTVDKEVEIRKKVLKIYNK [MNAT1], the protein stability index by setting is: under setting [1], 3.41 ± 0.18; under setting [2], 3.5 ± 0.29.

For the sequence QLIVTARTTRGLDPLFGMCEKFLQ [INTS4], the protein stability index is, setting by setting: under setting [1], 2.15 ± 0.4; under setting [2], 2.06 ± 0.3.

Regarding QLLLHNTVIFYGADSEQADIARML [ZMYND11], the protein stability index amounted to 2.28 ± 0.089 under setting [1] and 2.3 ± 0.13 under setting [2].

Consider QLQHDFPRALIFSTDDFFFREDGA [N4BP2L1], for which the protein stability index worked out at 3.09 ± 0.24 under setting [1] and 3.08 ± 0.47 under setting [2].

With QLRGQLQDLDSRLRAGSSEFDSEH [RASAL3], the protein stability index amounted to 4.71 ± 0.41 under setting [1] and 4.9 ± 0.46 under setting [2].

For QPMQNGEEDRPLGGGEGHQPAGNR [BEX3], the protein stability index by setting is: under setting [1], 5.42 ± 0.4; under setting [2], 5.36 ± 0.35.

Take QPPVPSLSEVKPPPPPPPAQTFLF [TRADD]: the protein stability index is, setting by setting: under setting [1], 3.41 ± 0.49; under setting [2], 3.44 ± 0.12.

As to QPRKKYVQRKSDFDQTVFQEVFEP [NETO1], the protein stability index was found to be 4.14 ± 0.22 under setting [1] and 4.26 ± 0.2 under setting [2].

With QPVPNTTEPDYKSKDWVFLNYTYK [STK38L], the protein stability index is, setting by setting: under setting [1], 3.33 ± 0.63; under setting [2], 3.14 ± 0.31.

Take QQPPQQQPSQQQQPPPQEEPGTPS [KLHL14]: the protein stability index reads like this: under setting [1], 5.67 ± 0.13; under setting [2], 5.61 ± 0.4.

On to QRDEQLRALQERLGQQQRDMRRDE [FBF1], for which the protein stability index came out at 5.39 ± 0.28 under setting [1] and 5.33 ± 0.31 under setting [2].

In turn, QREEVEERMWAAIQSWDINSRRNI [ZER1] yielded a protein stability index under setting [1] of 3.75 ± 0.36 and a protein stability index under setting [2] of 3.69 ± 0.29.

QSEESDQGKYECVATNSAGTRYSA [PTPRD]: the protein stability index is, setting by setting: under setting [1], 5.23 ± 0.33; under setting [2], 5.23 ± 0.34.

Take QSLYQEVFGRLRDENGRPYSPSQY [NFE2L1]: the protein stability index by setting is: under setting [1], 3.59 ± 0.31; under setting [2], 3.4 ± 0.18.

As to QSSQRMRQNLKLLVEETSCQQNMI [CEP70], the protein stability index amounted to 3.65 ± 0.16 under setting [1] and 3.66 ± 0.16 under setting [2].

With QTLQAMDSEDFPQAAKQIKDGVTM [FSD1], the protein stability index by setting is: under setting [1], 4.97 ± 0.26; under setting [2], 5.04 ± 0.083.

Consider QVAFGSLYRDDVLIKPSRVVAILA [GMCL1], for which the protein stability index under setting [1] stood at 2.38 ± 0.62 and the protein stability index under setting [2] is 2.46 ± 0.48.

For QVLKKIAQKALDLPSSGEGLAFFT [HMOX1], the protein stability index stood at 2.57 ± 0.7 under setting [1] and 2.02 ± 0.41 under setting [2].

For QVTAPGAPPLQAETPGSAVDYPLH [TNXB], the protein stability index by setting is: under setting [1], 4.45 ± 0.087; under setting [2], 5.292 ± 0.007.

Sequence QYREAAGPHEAFNKLWELCCQWLK [ZNF449] displayed a protein stability index under setting [1] of 2.93 ± 0.53 and a protein stability index under setting [2] of 3.05 ± 1.

Turning to QYRWDMMHRLGEPQARMREENMER [BEX1], the protein stability index worked out at 4.1 ± 0.37 under setting [1] and 4.23 ± 0.16 under setting [2].

Consider RAALKLEPSNKTIHAELSKLVKKH [FKBP8], for which the protein stability index by setting is: under setting [1], 3.71 ± 0.19; under setting [2], 3.85 ± 0.12.

Take RAASSQRAEEEDDDIKQLAAWAT [CHMP4C]: the protein stability index under setting [3] worked out at 5.34 ± 0.4 and the protein stability index under setting [4] is 5.2 ± 0.2.

In the case of RAMHLMKKREKQREQMEQMKQRIA [FAM50A], the protein stability index is, setting by setting: under setting [1], 3.27 ± 0.24; under setting [2], 3.51 ± 0.14.

In the case of RAQKQCRKSSFAFYQAVRDLLPVW [ANKRD9], the protein stability index is, setting by setting: under setting [1], 2.33 ± 0.49; under setting [2], 1.98 ± 0.31.

As to RAQYDELARKNREELDKYWSQQIE [KRT18], the protein stability index under setting [1] came out at 3.43 ± 0.27 and the protein stability index under setting [2] is 3.97 ± 0.85.

As for RAWIPSENIQDITVNIHRLHVKRS [ZMYND11], the protein stability index under setting [1] was found to be 2.55 ± 0.31 and the protein stability index under setting [2] turned out to be 2.49 ± 0.16.

As to RCGKFLQDGLPPTWRDFRTLEAFH [MED27], the protein stability index worked out at 2.17 ± 0.33 under setting [1] and 2.12 ± 0.18 under setting [2].

As for RDKAKMRNLETQHKVLELTAENER [CEBPB], the protein stability index runs as follows: under setting [1], 4.9 ± 0.2; under setting [2], 5.24 ± 0.24.

Regarding RELRCKVFPIKHYQDKIRPYIQLP [TRIB1], the protein stability index is 2.15 ± 0.42 under setting [1] and 2.32 ± 0.1 under setting [2].

Turning to RERMELLEEAKKMEMAKFRYILPV [RIPK4], the protein stability index under setting [1] is 2.48 ± 0.22 and the protein stability index under setting [2] was found to be 2.84 ± 0.4.

Regarding RFRFPSPILKVQYHPRDQNKVLVC [RBBP5], the protein stability index by setting is: under setting [1], 2.32 ± 0.11; under setting [2], 2.32 ± 0.21.

On to RFRRFRFQEAAGPREALSRLQELC [ZNF263], for which the protein stability index is, setting by setting: under setting [1], 2.6 ± 0.48; under setting [2], 2.58 ± 0.45.

As for RFSHMSERDLQELSIQVEEERRAR [ZMAT5], the protein stability index was determined as 5.51 ± 0.56 under setting [1] and 4.97 ± 0.87 under setting [2].

Take RGRTQLFSLNPRSGSLITAGRIDR [PCDHGA10]: the protein stability index was 3.29 ± 0.13 under setting [1] and 3.31 ± 0.34 under setting [2].

As to RHRQEVLCKEMVPLAEQTPLTLQS [ZSCAN9], the protein stability index is 4.31 ± 0.18 under setting [1] and 4.21 ± 0.077 under setting [2].

The sequence RHWCMKHDELLAEHIKSLLIKNNS [INTS3] gave a protein stability index under setting [1] of 2.29 ± 0.12 and a protein stability index under setting [2] of 2.38 ± 0.33.

In the case of RKEAYGKPVDIWACGVILYILLVG [CAMK2B], the protein stability index is 2.95 ± 0.76 under setting [1] and 2.73 ± 0.7 under setting [2].

RKLLESEECRMSGEFPSPVSISII [KRT71]: the protein stability index turned out to be 2.42 ± 0.42 under setting [1] and 2.19 ± 0.19 under setting [2].

As for RKQLQPTHCKYEGPRKARRLWFA, the protein stability index is, setting by setting: under setting [3], 2.85 ± 0.39; under setting [4], 3.04 ± 0.13.

For RKRMGTRRGRHEQSPTSRPRKVSS [C22orf15], the protein stability index by setting is: under setting [1], 4.7 ± 0.25; under setting [2], 4.59 ± 0.13.

On to RLEREERNQTQVLRQQQDEAYLAS [FAF2], for which the protein stability index runs as follows: under setting [1], 4.96 ± 0.21; under setting [2], 5 ± 0.15.

In the case of RLGELFNPYYDPLQWKSSHFERRD [CHGB], the protein stability index by setting is: under setting [1], 2.45 ± 0.28; under setting [2], 2.64 ± 0.24.

In the case of RLLLAGAEVQAKLENAEVLELTVR [HES6], the protein stability index under setting [1] came out at 2.37 ± 0.38 and the protein stability index under setting [2] worked out at 2.63 ± 0.49.

RLMRDMAQLRLQLEVSQLEGSLQQ [SMG5] came in with a protein stability index under setting [1] of 2.39 ± 0.43 and a protein stability index under setting [2] of 2.6 ± 0.3.

Consider RLNYDRKELEKRREESQHEIKDVL [PPFIA4], for which the protein stability index came to 3.65 ± 0.42 under setting [1] and 4.76 ± 0.3 under setting [2].

For the sequence RLRGLLRVLRGRPGAGSRRRGRMA [FBXO33], the protein stability index amounted to 2.6 ± 0.61 under setting [1] and 3.14 ± 0.69 under setting [2].

Turning to RLSVELTSSLFRTEPMAWNETADL [CTNNB1], the protein stability index is, setting by setting: under setting [1], 2.83 ± 0.2; under setting [2], 3.03 ± 0.31.

RLVDAVLGAEIRNGMAIIRPPGHH [HDAC6] came in with a protein stability index under setting [1] of 1.96 ± 0.17 and a protein stability index under setting [2] of 2.02 ± 0.35.

Regarding RMSYGGSTCHAYSNTRDRYGRSWE [RBMY1A1], the protein stability index was found to be 2.62 ± 0.21 under setting [1] and 2.46 ± 0.099 under setting [2].

As to RNERSIQEKLQVLMAEGLLPAVKV [SMG5], the protein stability index by setting is: under setting [1], 2.69 ± 0.26; under setting [2], 2.6 ± 0.22.

RNSGPVVEKLKQMQEFFGLKVTGK [MMP1]: the protein stability index by setting is: under setting [1], 3.16 ± 0.079; under setting [2], 3.14 ± 0.39.

For RNSTPPSLARNPAPGVLTNKRKTY [ZC2HC1A], the protein stability index runs as follows: under setting [1], 4.86 ± 0.21; under setting [2], 4.68 ± 0.17.

For RPDTGDDAAGHGFCYCAGSHKRKR [GMCL1], the protein stability index is, setting by setting: under setting [1], 3.81 ± 0.74; under setting [2], 4.47 ± 0.55.

Take RQPAFDTFDGSLFAVFPSLNEEQT [ETS2]: the protein stability index under setting [1] amounted to 3.89 ± 0.2 and the protein stability index under setting [2] was found to be 4.04 ± 0.31.

In the case of RQSLEGLSVRSVFFGVFQSFVVLL [CLPTM1], the protein stability index is, setting by setting: under setting [1], 2.04 ± 0.14; under setting [2], 1.99 ± 0.25.

Regarding RQSRRQSVSRFFADSGADPKGEPG [FBF1], the protein stability index under setting [1] came out at 5.04 ± 0.12 and the protein stability index under setting [2] came out at 5.11 ± 0.17.

In the case of RRILDELTLCKSDLESQVESLREE [KRT34], the protein stability index by setting is: under setting [1], 4.82 ± 0.14; under setting [2], 4.75 ± 0.18.

For the sequence RRVPPRFSIPPTNHEIMPGGSVNI [PTPRD], the protein stability index under setting [1] was found to be 3.38 ± 0.22 and the protein stability index under setting [2] came out at 3.39 ± 0.22.

With RSHLIGHQRTHSEEETYKCLECGK [ZNF449], the protein stability index runs as follows: under setting [1], 4.26 ± 0.16; under setting [2], 4.39 ± 0.26.

Turning to RSLLPSTEYQKQLLAAQVQLQCSP [FBF1], the protein stability index under setting [1] stood at 3.46 ± 0.41 and the protein stability index under setting [2] is 3.73 ± 0.18.

As to RTDSREQKLDAFLQPLSKPLSSQP [MLH1], the protein stability index is 4.32 ± 0.082 under setting [1] and 4.44 ± 0.14 under setting [2].

Regarding RTDVGITHQHWQQFEPQLTLWDVF [RSAD1], the protein stability index stood at 2.25 ± 0.4 under setting [1] and 2.38 ± 0.39 under setting [2].

Take RTSKSRGFAFITFENPADAKNAAK [RBMY1A1]: the protein stability index is, setting by setting: under setting [1], 3.26 ± 0.28; under setting [2], 3.46 ± 0.43.

RVEDAFYTLVREIRQYRLKKISKE [KRAS] registered a protein stability index under setting [1] of 2.3 ± 0.17.

As to RVQSVDFMRTDPVCQKLLLDAMNY [KLHL14], the protein stability index amounted to 2.74 ± 0.2 under setting [1] and 2.64 ± 0.22 under setting [2].

Take RVQVQVVERAQQVAVQEQEIARRE [FLOT1]: the protein stability index is, setting by setting: under setting [1], 5 ± 0.43; under setting [2], 4.76 ± 0.67.

As for RWLMVKIFLILIVFFIIFVVFLA [STX5], the protein stability index reads like this: under setting [3], 4.3 ± 0.23; under setting [4], 4.31 ± 0.33.

As to RYFPAGNVVNEGFFEENVLPPKK [GLIPR2], the protein stability index reads like this: under setting [3], 4.72 ± 0.066; under setting [4], 4.59 ± 0.38.
